The values that follow come from patent US20180208664A1 (APOGENIX, published 2018).

Ends that are not written are not given here.

A word on the Kd: it is the constant that tells how readily two partners part at equilibrium. Read a high Kd as a looser complex.

For one experiment, the target named is T1, peptide C-YMRNSKY (also: immobilized to BSA or ovalbumin).
T1 construct: Printed as 'C-YMRNSKY'; the leading C is read as an added cysteine
T1 peptide: CYMRNSKY
Kind of experiment: peptide ELISA, peptide on BSA or ovalbumin coated. As for the experimental part:
Binding of the rabbit monoclonal antibody was detected by incubation with goat anti rabbit IgG-Peroxidase (Sigma; dilution 1:5000) and subsequent detection of the converted Peroxidase-substrate TMBone at a wavelength of 450 nm in an ELISA reader (FIG. 13).
Binding of the rabbit monoclonal antibody was detected by incubation with goat anti rabbit IgG-Peroxidase (Sigma; dilution 1:5000) and subsequent detection of the converted Peroxidase-substrate TMBone at a wavelength of 450 nm in an ELISA reader (FIG. 14).

Experiment [1] addresses T2, epitope-comprising peptide YMRNSKYPQD (also: coupled to BSA).
T2 peptide: YMRNSKYPQD
Briefly: QCM; immobilized BSA-coupled peptide.

A further experiment has as its target T3, APG293 (human CD95L-T4) (human).
T3 chain: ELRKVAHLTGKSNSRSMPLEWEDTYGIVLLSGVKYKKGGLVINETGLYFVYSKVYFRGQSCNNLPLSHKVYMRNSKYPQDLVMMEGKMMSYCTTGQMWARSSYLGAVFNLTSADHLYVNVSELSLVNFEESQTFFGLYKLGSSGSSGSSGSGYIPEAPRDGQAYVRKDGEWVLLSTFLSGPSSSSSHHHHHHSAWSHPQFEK
Kind of experiment: cell-based or functional assay.

Experiment [2] concerns the target T4, APG296 (human CD95L-RB69) (human).
T4 construct: also called recombinant CD95L; human CD95L (APG296)
T4 chain: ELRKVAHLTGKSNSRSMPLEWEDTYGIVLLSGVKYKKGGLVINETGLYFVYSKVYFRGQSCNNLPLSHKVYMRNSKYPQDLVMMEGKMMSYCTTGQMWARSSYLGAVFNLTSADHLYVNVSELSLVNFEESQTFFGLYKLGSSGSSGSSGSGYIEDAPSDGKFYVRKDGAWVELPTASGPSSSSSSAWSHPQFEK
Kind of experiment: ELISA, APG296 coated. For orientation: An ELISA detects its analyte on a solid surface through an enzyme-linked reagent.

The next experiment concerns the target T5, APG707 (LIGHT-RB69) (human).
T5 construct: Structurally related TNF-superfamily protein with the same trimerisation scaffold as APG296; also called human LIGHT (APG707)
T5 chain: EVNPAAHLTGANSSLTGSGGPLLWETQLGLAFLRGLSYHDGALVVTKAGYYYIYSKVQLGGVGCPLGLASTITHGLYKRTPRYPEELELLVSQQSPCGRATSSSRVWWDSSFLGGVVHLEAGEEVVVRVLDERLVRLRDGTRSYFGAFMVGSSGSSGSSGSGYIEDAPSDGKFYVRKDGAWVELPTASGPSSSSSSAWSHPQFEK
Kind of experiment: competition ELISA, APG296 coated, APG707 as soluble competitor. As for the experimental part: For the competition ELISA, 96-well microtiter plates were coated with 10 μg/ml APG296 (CD95L-RB69). […] Binding of the rabbit monoclonal antibodies was detected by incubation with goat anti rabbit IgG-Peroxidase (Sigma; dilution 1:5000) and subsequent detection of the converted Peroxidase-substrate TMBone at a wavelength of 450 nm in an ELISA reader (FIG. 6).

The target in experiment [3] is T6, epitope-comprising peptide YMRNSKYPQD (also: coupled to BSA).
T6 peptide: YMRNSKYPQD
Kind of experiment: QCM (Attana A100), peptide-BSA immobilized, antibody as analyte. On the procedure: The A100 allows to investigate molecular interactions in real-time based on the Quartz Crystal Microbalance (QCM) technique. For this purpose, the respective epitope comprising peptide was coupled to BSA and subsequently immobilized to the surface of a carboxyl-activated QCM-chip. […] Binding (kₒₙ) and dissociation (koff) was analyzed in real time, and the respective KD was calculated (see table in FIG. 16).

B1: rabbit monoclonal anti-CD95L antibody clone 145-12 (antibody, V domains shown)
VH: QSLEESGGDLVKPGASLTLTCTASGFSFSSGYDMCWVRQAPGKGLEWIACIDTDNDATYYASWAKGRFTISKPSSTTVLLQITSLTAADTATYFCATTHGDYVAFKLWGPGTLVTVSS
VL: QVLTQTASSVSAAVGGTVTINCQSSQSVYKNNDLSWYQQKPRQPPKLLIYQASKLASGVPSRFKGSGSGTQFTLTIGDLECDDGATYYCAGGYTASIYAFGGGTEVVVKG
notes: Rabbit monoclonal IgG from a hybridoma subclone; Only VH and VL are tied to the clone by name; also called mAB145-12; mAb145-12
For B1, the binding result with peptide C-YMRNSKY was “no binding (tested: 2 µg/ml)”. The molecule also showed an equilibrium dissociation constant (Kd) in experiment [1] of 7.22 nM. In the experiment with APG293 (human CD95L-T4), the “EC50, Assay 1: antagonism of CD95L-T4-induced apoptosis on Jurkat A3 cells” value amounted to 0.187 µg/mL; the “EC50, Assay 2: antagonism of CD95L-T4-induced apoptosis on Jurkat A3 cells” value was 0.198 µg/mL; the “EC50, Assay 3: antagonism of CD95L-T4-induced apoptosis on Jurkat A3 cells” value was 0.225 µg/mL; the “EC50, Assay 4: antagonism of CD95L-T4-induced apoptosis on Jurkat A3 cells” value came out at 0.192 µg/mL. In the experiment with APG293 (human CD95L-T4), the “EC50, Mean: antagonism of CD95L-T4-induced apoptosis on Jurkat A3 cells” value is 0.201 µg/mL. Also, in experiment [2], the binding result was “binds”. Also, the binding result with APG707 (LIGHT-RB69) is recorded as “no binding (tested: 100 µg/ml)”. Moreover, the binding result in experiment [3] is “binds”.
